Source: paper PMC4385930

How the values were obtained:
Experiment in all cases: ITC
[1] = target: Bak BH3 BH3 (Homo sapiens), Q16611
[2] = target: Bax BH3 BH3 (Homo sapiens), Q07812
[3] = target: Bid BH3 BH3 (Homo sapiens), P55957

B1: F1L ΔN38ΔC36, P24356 (protein)
chain: YPLPENMVYRFDKSTNILDYLSTERDHVMMAVRYYMSKQRLDDLYRQLPTKTRSYIDIINIYCDKVSNDYNRDMNIMYDMASTKSFTVYDINNEVNTILMDNKGLGVRLATISFITELGRRCMNPVETIKMFTLLSHTICDDYFVDYITDIS
Binder B1 has a Kd [1] of 2640 nM, a Kd [2] of 920 nM and a Kd [3] of 3220 nM.
